Source: the nanobody polyreactivity screen of Harvey et al. (2022)

Experiment: yeast display, Sf9 membrane polyspecificity reagent, FACS + sequencing; frameworks hold sequencing errors
In short: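 Synthetic nanobody libraries on Saccharomyces cerevisiae BJ5465 were galactose-induced for 36–48 hours, stained 1 hour at 4 °C with 10% biotinylated, detergent-solubilized Sf9 membrane reagent and enriched on streptavidin microbeads. FACS then separated cells into low and high (top ~1%) gates by anti-HA (expression) and streptavidin (reagent binding) fluorescence. Genes were colony-PCR amplified, MiSeq 2 × 250 sequenced and CDR-length filtered. A clone's polyreactivity label is that of its gate of origin.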

Row | Sequence | polyreactivity (PSR sort gate)
1 | QVQLVESGGGLDQAGGSLRLTCAASGRIFGAYAMGWYRQAPGKEMELVAVISLSTGSTYYADSVKVRFTISRDNAKNTVYLQMKSLKPDDTAVYYCAVDTRFKWGWDYYYWGLGTQVTVSS | high polyreactivity
2 | QVQLVESGGGLVQAGGSLRLSCAASGSIFRYYVTGWYRQAPGKERELVATISSSGGRTYYADSVKGRFTISRDNAKNTVYLQMNSLKPEDTAVYYCNARTSPYSGYSGRYYWGQGTQVTVSS | high polyreactivity
3 | QVQLVESGGGLVQAGGSLRLSCAASGFTFWDYAMGWYRQAPGKESELVAAISDNDGSTDYADYVKGRFTISRDNAKNTVYLPMNSLKPEDTAVYYCNGEIELPSKEGDYWGQGTQVTVSS | low polyreactivity
4 | QVQLVDSGGGIVQEGGSRRLSCAASGSIFVNYAMGWYRQAPGKERELVAAITLRGVSTFYADSVKGRFTISRDNAKNTVYLQMNSLKPEETAVYYCAASSLRYRAYKSLFDYWGQGTQVTVSS | low polyreactivity
5 | QVQLVESGGGLVQAGGSLRLSCAASGRTFINYAMGWYRQAPGKERELVAAITTGGRTNYADSVKGRFTISRDNAKHTVYLQMNSLKPEDTAVYYCAADRYYWGRYTLNYWGQGTQVTVSS | low polyreactivity
6 | QVQLVESRGGLVQAGGSLRLSCAASGFTLPANGMGWYRQAPGKERELVAAISFIAGSTYYADSVKGRFTISRDNEKNTVYFQMNSLKPEDTAVYYSATQFPPSSIYDYWGQGTQVTVSS | low polyreactivity
7 | QVQLVESGGGLVQAGCSLRLSWAASGFTFAYYAMGWSRQAPGKERDLVASITSSGGSTYYADSVKGRFTISRDNAKNTVYLQMNSLKPEDTAVYYCNKAYRGVYYGYEYWGQGTQVTVSS | high polyreactivity
8 | QVQLVESGGGLVQAGGSLRLSCAASGIIQPRYAMGWYRQAPGKERELVAAISRGGGTYYADSVKGRFTISRDNAKNTVYLQMNSLIPEYSAVYNCASAYVFVGSSHYYWGQGTQVTVSS | high polyreactivity
9 | QVQLVESGGGLVQAGGSLRLSCAASGFNFPVNAMGWYRQAPGTERELVASITRSGGRTYYADSVKGRLTISRDNAKNTVYLQMNSLKPEDTAVYYCAARYLQEYVYEYDYWGQGTQVTVSS | high polyreactivity
10 | QDQLVESGGGLVQAGGSLRLSCAASGFTLHVYAMGWYRQAPGKERELVAAISTGGNTNYGDSVKGRFTISRDNAKNTVYLQMNSLKPEDTAVYYCNARYTSRRSRRPYYYWGQGTQVTVSS | high polyreactivity
11 | QDQLVDSGGGLVQAGGSLRLSCAASGSIFTPNAMGWYRQAPGKERELVAAISWSGGGTYYADSVKGRFTISRDNAKNTVYLQMNSLKPEDTAVYYCNAEYTKTGALVIPYTYYYAEDYWGQGTQVTVSS | low polyreactivity
12 | QVQLVESGGGLVQAGGSLRLSCAASGRIFTYNTMGWYRQSPGKEREFVASITYSGSSTYYADSVKGRFTISRDNAKNTVYLQMNSLKPEDTAVYYCATRYGYSDGDYWGHGTQVTVSS | low polyreactivity
13 | QVQLVESGGGLVQAGGSLRLSCAASGRIFGFYTMGWYRQAPGKERELVAGISRGGSTYYADSVKGRFTISRDNAKNTGYVQMNSLNPEDTAVYDCAADLGWGYEYWGQGTQVTVSS | low polyreactivity
14 | QGQLVESGGGLVQAGGSLRLSSAASGSTFVYAMGWYRQAPGKERVLVASISWSDSSTYYADSVKGRFTISRDNAKNTVYLQMNSQKREDTAVYYGYADQGTRDSDYWGQGTQGTVSS | low polyreactivity
15 | QVQLVESGGGLFHAGGSLRLSCSASGLTFDINAMGWYRQEPGKERELVAAISRSGGRTYYADSVKGRFTISRDNAKNTVFLQMNSLKPEDTAVYYCADRFIYGYDYWGQGTQVTVSS | high polyreactivity
16 | QVQLVESGGGLVQAGGSLRLSCDASGFTFVSYAMGSYRQAPGKERELVAVISYRAGSTYYADSVKGRFTISRDNAKNTVYLPMYSLKPEDTAVYYCATDRYSRRNDYWGQGTQVTVSS | high polyreactivity
17 | QVQLVESGGGLVQAGGSLRLSCAASGSTLNDYTMGWYRQAPGKERELVAAIRVSGARTFYADSVKGRFTISRDNAKNTVYLQMNSLKPEDTAVYYCAARWYIANPLSPSDYWGQGTQVTVSS | low polyreactivity
18 | QVQLVESGGGLVQAGGSLRLSCAASGSIVDTNAMGWYRQAPGKERELVAAITSTDSTNYADSVKGRFTISRDNAKNTVYLQMNSLKPEDTAVYYCNAALSQLRRGGLAMDYWGQGTQVTVSS | low polyreactivity
19 | QVQLVESGGDLVQAGGSLRLSCAASGSIFYINAMGWYRQAPGKERELVASISYSGTSTYYADSVKGRFTISRDNAKNTVYLQMNSLKPEDTAVYYCNAEDTPGAGDGYWGQGTQVTVSS | low polyreactivity
20 | QVQLEESGGGIVQAGGSLRLSCAASGSTFVLNAMGWYRKAPGKERELVAAITRDGRTYYADSVKGRFTISRDNAKNTVYLQMNSLKPEDTAVYYCARPARYSYGDGYWGQGTLVTVSS | low polyreactivity
21 | QVHLVESGGGLVQAGGSLRLSGAASGFTFYRYAMGWSRQAPGKERELVAAITSGAITYYADSVKGRFTISRDNAKNTVYLQMNSLKPEETAVYYCNAVYRVAAIVRYDYWGQGTQVTVSS | high polyreactivity
22 | QVQLVESGGGLVQAGGSLRLSCAASGLNFRKYAMGWYRQAPGKERELVAGISSGGSTYYADSVKGRFTISRDNAKNTVYLQMNSLKPEDTAVYYCAAKALRTMYYWGQGTQVTVSS | high polyreactivity

Row | Sequence | polyreactivity (PSR sort gate)
23 | QVQLVESGGGLVQAGGSLRISCAASGSTFYCYAMGWYRQAPGKERELVAAIRRNGDGTYYADSVKGRFTISRDNAKNTVYLQMNSLKPVDTAVYYCAARRFIPRFNYWGQGTQVTVSS | high polyreactivity
24 | QVQLVESGGGLVQAGGSLRLSCAASGITFKYNAMAWYRQAPGKEMELVAAISSGGNTYYADSVKGRFTISRDNAKNTVYLQMNSLKPEDTAVYYCAAPSYDTLWHDYWGQGTQVTVSS | low polyreactivity
25 | QDQLVESGGGLVQAGGSLRLSCAASGRIFDRYAMGWYRQAPGKERELVAAISGRTGSTYYADSVKGRFTISRDNAKNTVYLQMNSLKPEDTAVYYCAKRSYWDGVRYDYWGQGTQVTVSS | high polyreactivity
26 | QVHLVESGGGLVQAGGSLRLSCAASGSIFVSNAMGWYRQAPGKERELVAAIRGVDSTYYADSVKGRFTISRDNAKNTVYLQMNSLKPEDTAVYYCATPGPGYTRYYYWGQGTQVTVSS | high polyreactivity
27 | QVQLVESGGGLVQAGGSLRLSCAASGSIFLPYAMVWSRQAPGTERELVAAITWGGDSTYADSVKGRFTISRDNAKNTVYLQMNSLKPEDTAVYYCAAGAGFESDYWGQGTQVTVSS | low polyreactivity
28 | QVQLVESGGGLVQAGGSLRLSCAASGLIFHRNAMGWYRQAPGKERELVAAITKTGGGTYYADSVKGRFTISLDNAKNTVYLQMNSLKPEDTAVYYCAADTQRTFYYWGQGTQVTVSS | low polyreactivity
29 | QVQLVESGGGLVQAGGSLRLSCAASGFIFGWNAMGWYRQAPGKEREFVAAITSSGTSTYYADSVKGRFTISRDNAKNTVYLQMNSLKPEDTAVYYCAADVIFNWLAYSTEYDYWGQGTQVTVSS | low polyreactivity
30 | QVQLVESGGGLVQAGGSLRLSCAASGRIFGKYAMGWYRQAPGKERELVAAISVRGGRTFYADSVKGRFTISRDNAKNTVYLQMNSLKPEVTAVYYCAARGADKGSYADVDYWGQGTQVTVSS | low polyreactivity
31 | QVQLVESRGGLVKAGGSLRLSCAASGRIFRKYDMGWYRQAPGKERELVAAISGTGITYYADSVKGRFTISRDNAKNTVYLQMNRLKPEDTAVYYCARGSKPRAWSWAFASATSIYEYWGQGTQLTVSS | low polyreactivity
32 | QVQLVESGGGLVQAGGSLRLSCAASGGTFRYYTMVWYRQAPGKERELVAAITRGGRTYYADSVKGRFTISRDNAKNTVYIQMNSLKPEDTAVYYCAAVRPRSPVSYENDYWGQGTQVTVSS | high polyreactivity
33 | QVQLVESGGGLVQAGGSLRLSCAASGRIFDIYAMGWYRPAPRKERELVAAITRRGGTTYADSVKGRFTISRDNAKNTVYLQMNSLKPEVNAVYYCAAGLYFRKWYSWTRYEYWGQGTQVTVSS | high polyreactivity
34 | QVQLVESGGGLVQAGGSLRLSCAASGFTFKSYTMGSYRQAPGKERELVAAISRRDGSTYYADSVKGRFTISRDNAKNTVYLQMNSLKPEDTAVYYCAKVWYGDRNIDRYDYWGQGTQVTVSS | high polyreactivity
35 | QVQLVESGGGLVQAGGSLRLSCAASGIIFYDYAMGWYRQAPGKERELVAAISRSGGSTYYADSVKGRFTISRDNAKNTVYLQMNSLKPEDTAVYYCAKDRDFSSPPTESGFDYWGQGTQVTVSS | low polyreactivity
36 | QVQLVESRGGLVQAGGSLRLSCAASGRILHFNAMGWYRQAPGKEREFVASISWSGGFTYYADSVKGRFTISRDNAKNTVYLQMNSLTPEDTAVYYCARGYGYGDHAMGYWGQGTQVTVSS | high polyreactivity
37 | QVQLVESGGGLVQAGGSLRLSCAASGLTFSINAMGWYIQAPGKERELVAAISRSGGRTYYADSVKGRFTISRDNAKNTVYLQMNSLKPEDTAVYYCAADKTQSHYDYWGQGTQVTVSS | high polyreactivity
38 | QVQLVESVVGLVQAGGSLRLSCAATGSIFRWYAMGWYRQAPGKERELVAAITWSASRTYYADSVKGRFTISRDNGKNTVYLQMNSLKPEDTAVYYCAADHDCPYAGYDSWGQGTQVTVSS | low polyreactivity
39 | QVQLVESGGGLVQAGGSLRLSCAASGRTFQYNAMGWNTQAPGKERELVAAISSGGSTYYADSVKGRFTISRDNAKNTVYLQMNSLKPEDTAVYYCNAVTGYQHVKYRYYYWGQGTQVTVSS | low polyreactivity
40 | QDQLVESWVGLVQAGGSLRLSYAASGYIIKYNAMGRYRHAPRKERELVAAISSIGGRTYYADSVKARFTISRDNAKNNVYLQINILKPEDTAVYYFNAVGGRYTGWRYDYWGQGTQVTVSS | high polyreactivity
41 | QVQLVESGGGLVQAGGSLRLSCAASGSIFVYYTMGWYRQAPGKERELVAAISFSGGSTYADSVKGRFTISRDNAKNTVYLQMNSLKPEDTAVYFCNADRWLYTPSKFVEMDYWGQGTQVTVSS | low polyreactivity
42 | QVQLVESGGGLVQAGGSLRLSCAASGFTFRVYAMGWYRQAPGKERELVAAITNSGGNTYYADSVKGRFTISRDNAKNTVYLQMNSLKPEDTAVYYCNRRYRYRFGYWGQGTQVTVSS | high polyreactivity
43 | QVQLVESGGGLVQAGGSLRLSCAASGRTFWKNTMGWYSQAPGKERELVAVISSGGVSTSYADSVTGRFTISRDKATNTVYLHMNSLKPEDTAVYYCAADGYYIGPYDYWGQGTQVTVSS | low polyreactivity
